One substance from PMC12192683 can be followed below.

The target in the experiment is low-density lipoprotein receptor-related protein 1 (LRP1), full-length, purified from human placenta (human) (UniProt Q07954). Put plainly: SPR; LRP1 amine-coupled to CM5 chip; RBD or alkylated RBD flowed in HBS-P with 1 mM CaCl2, 25 C; equilibrium analysis (Req against concentration, single class of sites) and single injections of 1 uM. Background: SPR reads the build-up and loss of mass on a sensor chip optically.
Sequence of low-density lipoprotein receptor-related protein 1 (LRP1), full-length, purified from human placenta (human) (Q07954 20-4544): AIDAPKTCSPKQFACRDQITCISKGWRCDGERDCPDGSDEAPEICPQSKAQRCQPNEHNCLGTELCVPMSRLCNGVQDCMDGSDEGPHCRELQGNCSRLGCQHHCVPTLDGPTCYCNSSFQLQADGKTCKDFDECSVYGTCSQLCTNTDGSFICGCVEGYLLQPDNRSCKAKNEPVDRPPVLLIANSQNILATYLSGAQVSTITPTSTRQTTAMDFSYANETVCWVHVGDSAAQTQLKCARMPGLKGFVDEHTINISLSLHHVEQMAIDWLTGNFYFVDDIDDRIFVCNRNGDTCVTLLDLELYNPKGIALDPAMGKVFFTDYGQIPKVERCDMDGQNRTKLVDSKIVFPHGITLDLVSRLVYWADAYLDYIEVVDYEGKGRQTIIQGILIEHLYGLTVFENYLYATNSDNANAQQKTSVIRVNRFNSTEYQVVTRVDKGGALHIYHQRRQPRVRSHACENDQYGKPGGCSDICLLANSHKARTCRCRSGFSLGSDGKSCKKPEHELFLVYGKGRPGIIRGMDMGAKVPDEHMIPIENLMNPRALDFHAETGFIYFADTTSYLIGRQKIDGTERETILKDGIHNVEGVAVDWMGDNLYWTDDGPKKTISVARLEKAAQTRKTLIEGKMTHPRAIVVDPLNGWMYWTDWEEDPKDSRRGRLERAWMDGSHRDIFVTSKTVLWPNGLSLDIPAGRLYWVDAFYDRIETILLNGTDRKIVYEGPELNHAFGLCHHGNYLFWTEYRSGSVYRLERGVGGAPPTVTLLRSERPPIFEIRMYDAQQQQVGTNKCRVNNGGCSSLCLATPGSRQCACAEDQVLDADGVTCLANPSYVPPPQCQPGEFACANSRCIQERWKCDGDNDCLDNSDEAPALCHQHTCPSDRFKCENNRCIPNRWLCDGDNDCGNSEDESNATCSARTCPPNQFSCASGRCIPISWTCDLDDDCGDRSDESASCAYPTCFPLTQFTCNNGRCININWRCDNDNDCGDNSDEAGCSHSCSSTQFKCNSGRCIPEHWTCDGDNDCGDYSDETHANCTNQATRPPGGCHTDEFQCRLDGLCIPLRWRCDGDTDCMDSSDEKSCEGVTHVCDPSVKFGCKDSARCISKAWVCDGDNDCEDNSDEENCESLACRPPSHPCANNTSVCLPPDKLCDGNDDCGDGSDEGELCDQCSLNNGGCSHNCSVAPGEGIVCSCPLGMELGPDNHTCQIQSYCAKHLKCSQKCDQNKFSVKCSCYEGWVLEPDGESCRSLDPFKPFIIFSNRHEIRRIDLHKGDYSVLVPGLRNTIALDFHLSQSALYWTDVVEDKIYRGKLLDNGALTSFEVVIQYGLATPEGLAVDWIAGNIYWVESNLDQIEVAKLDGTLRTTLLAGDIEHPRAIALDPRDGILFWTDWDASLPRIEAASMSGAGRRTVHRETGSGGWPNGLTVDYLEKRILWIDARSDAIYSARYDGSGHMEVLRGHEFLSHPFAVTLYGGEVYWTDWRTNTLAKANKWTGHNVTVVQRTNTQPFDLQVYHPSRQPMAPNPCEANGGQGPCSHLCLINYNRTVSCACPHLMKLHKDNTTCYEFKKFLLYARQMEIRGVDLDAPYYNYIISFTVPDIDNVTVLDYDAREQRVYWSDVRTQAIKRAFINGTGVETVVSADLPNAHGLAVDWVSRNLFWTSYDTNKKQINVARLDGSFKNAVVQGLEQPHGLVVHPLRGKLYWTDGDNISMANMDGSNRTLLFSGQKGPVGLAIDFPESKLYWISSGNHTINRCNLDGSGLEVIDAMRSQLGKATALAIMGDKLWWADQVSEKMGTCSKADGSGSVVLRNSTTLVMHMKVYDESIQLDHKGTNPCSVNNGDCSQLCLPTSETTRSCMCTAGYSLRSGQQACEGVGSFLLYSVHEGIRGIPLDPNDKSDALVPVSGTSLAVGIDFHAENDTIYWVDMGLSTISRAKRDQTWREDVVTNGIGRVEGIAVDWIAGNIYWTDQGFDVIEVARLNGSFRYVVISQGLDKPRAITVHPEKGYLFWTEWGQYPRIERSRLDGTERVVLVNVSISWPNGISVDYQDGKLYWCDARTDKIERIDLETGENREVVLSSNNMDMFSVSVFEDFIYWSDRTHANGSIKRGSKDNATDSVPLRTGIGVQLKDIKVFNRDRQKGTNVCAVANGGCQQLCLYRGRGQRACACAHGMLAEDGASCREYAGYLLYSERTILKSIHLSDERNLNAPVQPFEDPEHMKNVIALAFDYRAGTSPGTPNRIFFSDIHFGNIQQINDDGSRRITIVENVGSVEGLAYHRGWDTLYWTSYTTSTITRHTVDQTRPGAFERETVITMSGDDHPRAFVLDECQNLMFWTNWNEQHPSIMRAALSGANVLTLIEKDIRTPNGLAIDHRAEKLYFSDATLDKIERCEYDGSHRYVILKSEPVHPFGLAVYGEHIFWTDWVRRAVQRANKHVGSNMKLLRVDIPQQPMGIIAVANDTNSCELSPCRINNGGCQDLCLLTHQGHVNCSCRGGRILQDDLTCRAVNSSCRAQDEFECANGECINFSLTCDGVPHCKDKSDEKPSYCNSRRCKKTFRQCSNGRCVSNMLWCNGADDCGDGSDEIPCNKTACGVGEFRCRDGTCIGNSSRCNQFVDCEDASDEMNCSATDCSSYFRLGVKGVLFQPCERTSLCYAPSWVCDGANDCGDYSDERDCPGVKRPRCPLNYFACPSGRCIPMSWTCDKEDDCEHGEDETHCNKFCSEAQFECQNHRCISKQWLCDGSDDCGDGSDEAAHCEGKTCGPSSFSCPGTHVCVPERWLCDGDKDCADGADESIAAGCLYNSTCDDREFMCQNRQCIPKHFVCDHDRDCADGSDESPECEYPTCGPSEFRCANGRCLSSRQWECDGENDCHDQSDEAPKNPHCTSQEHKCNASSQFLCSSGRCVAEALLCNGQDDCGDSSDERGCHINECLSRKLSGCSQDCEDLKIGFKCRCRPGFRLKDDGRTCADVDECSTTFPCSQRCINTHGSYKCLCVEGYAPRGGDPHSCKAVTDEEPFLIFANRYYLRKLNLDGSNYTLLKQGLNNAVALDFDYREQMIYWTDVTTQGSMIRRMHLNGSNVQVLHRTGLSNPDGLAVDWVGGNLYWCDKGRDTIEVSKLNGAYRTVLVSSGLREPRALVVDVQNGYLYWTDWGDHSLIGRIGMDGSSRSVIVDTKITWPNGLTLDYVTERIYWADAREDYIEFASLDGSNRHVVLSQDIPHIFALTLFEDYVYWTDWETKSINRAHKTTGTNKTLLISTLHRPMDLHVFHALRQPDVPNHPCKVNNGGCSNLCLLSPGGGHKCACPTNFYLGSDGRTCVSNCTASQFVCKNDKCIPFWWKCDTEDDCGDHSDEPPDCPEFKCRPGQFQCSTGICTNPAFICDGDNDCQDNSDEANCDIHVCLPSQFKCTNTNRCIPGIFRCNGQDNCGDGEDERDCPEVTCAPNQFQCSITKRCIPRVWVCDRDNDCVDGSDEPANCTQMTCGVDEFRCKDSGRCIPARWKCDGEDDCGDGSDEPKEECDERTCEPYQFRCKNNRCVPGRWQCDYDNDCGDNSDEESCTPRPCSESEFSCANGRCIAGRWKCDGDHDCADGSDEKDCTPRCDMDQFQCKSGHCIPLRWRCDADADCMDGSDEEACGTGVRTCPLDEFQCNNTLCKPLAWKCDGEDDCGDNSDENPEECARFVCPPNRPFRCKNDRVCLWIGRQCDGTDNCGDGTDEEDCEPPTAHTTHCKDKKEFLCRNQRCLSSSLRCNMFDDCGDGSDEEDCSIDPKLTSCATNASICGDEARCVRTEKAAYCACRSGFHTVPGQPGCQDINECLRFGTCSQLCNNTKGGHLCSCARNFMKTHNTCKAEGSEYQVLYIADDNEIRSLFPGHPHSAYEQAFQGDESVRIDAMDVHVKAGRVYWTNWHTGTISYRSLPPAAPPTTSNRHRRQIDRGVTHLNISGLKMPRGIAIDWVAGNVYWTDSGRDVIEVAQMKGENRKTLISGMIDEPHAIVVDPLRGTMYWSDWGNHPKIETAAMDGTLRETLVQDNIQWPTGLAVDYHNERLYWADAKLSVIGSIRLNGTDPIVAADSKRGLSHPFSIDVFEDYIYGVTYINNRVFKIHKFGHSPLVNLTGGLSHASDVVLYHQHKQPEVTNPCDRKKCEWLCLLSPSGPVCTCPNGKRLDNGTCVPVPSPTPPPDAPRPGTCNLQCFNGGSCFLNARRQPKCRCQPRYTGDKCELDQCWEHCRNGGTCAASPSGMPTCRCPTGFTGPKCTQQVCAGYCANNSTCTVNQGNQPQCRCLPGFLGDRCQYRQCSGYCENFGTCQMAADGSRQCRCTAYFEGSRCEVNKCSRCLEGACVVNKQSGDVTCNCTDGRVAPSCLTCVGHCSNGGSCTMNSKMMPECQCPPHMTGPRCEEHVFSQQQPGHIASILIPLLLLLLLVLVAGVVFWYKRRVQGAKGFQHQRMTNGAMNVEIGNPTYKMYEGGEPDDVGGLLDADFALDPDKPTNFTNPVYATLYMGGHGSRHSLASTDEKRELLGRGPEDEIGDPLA

A word on the Kd: it is the constant that tells how readily two partners part at equilibrium. A low value points to tighter binding. As to “SARS-CoV-2 spike protein receptor binding domain (Arg319-Phe541), his tagged (from UniProt P0DTC2 319-541) (domain or fragment)”, the Kd came out at 0.192 µM.
